# In PMC5740061 (Nature Communications, 2017):
# B1: SDGF-TB1G1 (TB1G1 displayed on 293F cells) [designed binder] / Biotinylated His-Avi-TEAD1(194–411) [modified: biotin (BirA-500 kit); biotin (BirA-500 kit)] [not stated] (parent complex)
# chain 1: PDEYIERAKECCKKGDIQCCLRYFEESGDPNVMLICLFCP
# chain 2: RSIGTTKLRLVEFSAFLEQQRDPDSYNKHLFVHIGHANHSYSDPLLESVDIRQIYDKFPEKKGGLKELFGKGPQNAFFLVKFWADLNCNIQDDAGAFYGVTSQYESSENMTVTCSTKVCSFGKQVVEKVETEYARFENGRFVYRINRSPMCEYMINFIHKLKHLPEKYMMNSVLENFTILLVVTNRDTQETLLCMACVFEVSNSEHGAQHHIYRLVKD
# Variants of: B1
# Assay: mammalian (293F) surface display of a site-saturation mutagenesis library (every non-Cys single substitution), FACS sorting on biotinylated TEAD1 YBD, two sorting rounds, Illumina sequencing with perfect-match mapping; 20 nM biotinylated TEAD, monovalent 2-step stain (TEAD alone 30 min at 4 °C, dilute, pellet, then 20 nM streptavidin-Alexa Fluor 647), flow sorting on a BD Aria
row,Variant,enrichment
1,chain 1 PDEYIERQKECCKKGDIQCCLRYFEESGDPNVMLICLFCP [chain 1 A8Q],"-6 log2 (fold change of variant abundance after two TEAD sorts vs input, normalised to TB1G1)"
2,chain 1 PDEYIERATECCKKGDIQCCLRYFEESGDPNVMLICLFCP [chain 1 K9T],"2.68 log2 (fold change of variant abundance after two TEAD sorts vs input, normalised to TB1G1)"
3,chain 1 PDEFIERAKECCKKGDIQCCLRYFEESGDPNVMLICLFCP [chain 1 Y4F],"0.668 log2 (fold change of variant abundance after two TEAD sorts vs input, normalised to TB1G1)"
4,chain 1 PDEYIERAIECCKKGDIQCCLRYFEESGDPNVMLICLFCP [chain 1 K9I],"-3.03 log2 (fold change of variant abundance after two TEAD sorts vs input, normalised to TB1G1)"
5,chain 1 PDEYIERRKECCKKGDIQCCLRYFEESGDPNVMLICLFCP [chain 1 A8R],"-5.84 log2 (fold change of variant abundance after two TEAD sorts vs input, normalised to TB1G1)"
6,chain 1 PDESIERAKECCKKGDIQCCLRYFEESGDPNVMLICLFCP [chain 1 Y4S],"-0.738 log2 (fold change of variant abundance after two TEAD sorts vs input, normalised to TB1G1)"
7,chain 1 PREYIERAKECCKKGDIQCCLRYFEESGDPNVMLICLFCP [chain 1 D2R],"-7.12 log2 (fold change of variant abundance after two TEAD sorts vs input, normalised to TB1G1)"
8,chain 1 PDENIERAKECCKKGDIQCCLRYFEESGDPNVMLICLFCP [chain 1 Y4N],"0.0419 log2 (fold change of variant abundance after two TEAD sorts vs input, normalised to TB1G1)"
9,chain 1 PDEYGERAKECCKKGDIQCCLRYFEESGDPNVMLICLFCP [chain 1 I5G],"-3.97 log2 (fold change of variant abundance after two TEAD sorts vs input, normalised to TB1G1)"
10,chain 1 PDEYRERAKECCKKGDIQCCLRYFEESGDPNVMLICLFCP [chain 1 I5R],"-3.27 log2 (fold change of variant abundance after two TEAD sorts vs input, normalised to TB1G1)"
11,chain 1 PDEYIENAKECCKKGDIQCCLRYFEESGDPNVMLICLFCP [chain 1 R7N],"0.343 log2 (fold change of variant abundance after two TEAD sorts vs input, normalised to TB1G1)"
12,chain 1 PDEYIARAKECCKKGDIQCCLRYFEESGDPNVMLICLFCP [chain 1 E6A],"-0.676 log2 (fold change of variant abundance after two TEAD sorts vs input, normalised to TB1G1)"
13,chain 1 KDEYIERAKECCKKGDIQCCLRYFEESGDPNVMLICLFCP [chain 1 P1K],"-0.294 log2 (fold change of variant abundance after two TEAD sorts vs input, normalised to TB1G1)"
14,chain 1 PDETIERAKECCKKGDIQCCLRYFEESGDPNVMLICLFCP [chain 1 Y4T],"-0.869 log2 (fold change of variant abundance after two TEAD sorts vs input, normalised to TB1G1)"
15,chain 1 PDEAIERAKECCKKGDIQCCLRYFEESGDPNVMLICLFCP [chain 1 Y4A],"0.259 log2 (fold change of variant abundance after two TEAD sorts vs input, normalised to TB1G1)"
16,chain 1 PDEYIVRAKECCKKGDIQCCLRYFEESGDPNVMLICLFCP [chain 1 E6V],"-1.55 log2 (fold change of variant abundance after two TEAD sorts vs input, normalised to TB1G1)"
17,chain 1 PDEYIYRAKECCKKGDIQCCLRYFEESGDPNVMLICLFCP [chain 1 E6Y],"-2.33 log2 (fold change of variant abundance after two TEAD sorts vs input, normalised to TB1G1)"
18,chain 1 PDEYLERAKECCKKGDIQCCLRYFEESGDPNVMLICLFCP [chain 1 I5L],"-0.381 log2 (fold change of variant abundance after two TEAD sorts vs input, normalised to TB1G1)"
19,chain 1 PDEYIERSKECCKKGDIQCCLRYFEESGDPNVMLICLFCP [chain 1 A8S],"-2.79 log2 (fold change of variant abundance after two TEAD sorts vs input, normalised to TB1G1)"
20,chain 1 HDEYIERAKECCKKGDIQCCLRYFEESGDPNVMLICLFCP [chain 1 P1H],"-0.884 log2 (fold change of variant abundance after two TEAD sorts vs input, normalised to TB1G1)"

row,Variant,enrichment
1,chain 1 PDEYVERAKECCKKGDIQCCLRYFEESGDPNVMLICLFCP [chain 1 I5V],"-0.274 log2 (fold change of variant abundance after two TEAD sorts vs input, normalised to TB1G1)"
2,chain 1 PDEYIMRAKECCKKGDIQCCLRYFEESGDPNVMLICLFCP [chain 1 E6M],"-2.04 log2 (fold change of variant abundance after two TEAD sorts vs input, normalised to TB1G1)"
3,chain 1 PDEYIESAKECCKKGDIQCCLRYFEESGDPNVMLICLFCP [chain 1 R7S],"0.311 log2 (fold change of variant abundance after two TEAD sorts vs input, normalised to TB1G1)"
4,chain 1 PDEYIEGAKECCKKGDIQCCLRYFEESGDPNVMLICLFCP [chain 1 R7G],"1.31 log2 (fold change of variant abundance after two TEAD sorts vs input, normalised to TB1G1)"
5,chain 1 PDEYIERAEECCKKGDIQCCLRYFEESGDPNVMLICLFCP [chain 1 K9E],"3.95 log2 (fold change of variant abundance after two TEAD sorts vs input, normalised to TB1G1)"
6,chain 1 PDEYILRAKECCKKGDIQCCLRYFEESGDPNVMLICLFCP [chain 1 E6L],"-0.404 log2 (fold change of variant abundance after two TEAD sorts vs input, normalised to TB1G1)"
7,chain 1 PYEYIERAKECCKKGDIQCCLRYFEESGDPNVMLICLFCP [chain 1 D2Y],"-1.63 log2 (fold change of variant abundance after two TEAD sorts vs input, normalised to TB1G1)"
8,chain 1 PDEYWERAKECCKKGDIQCCLRYFEESGDPNVMLICLFCP [chain 1 I5W],"-7.46 log2 (fold change of variant abundance after two TEAD sorts vs input, normalised to TB1G1)"
9,chain 1 QDEYIERAKECCKKGDIQCCLRYFEESGDPNVMLICLFCP [chain 1 P1Q],"-0.836 log2 (fold change of variant abundance after two TEAD sorts vs input, normalised to TB1G1)"
10,chain 1 PDAYIERAKECCKKGDIQCCLRYFEESGDPNVMLICLFCP [chain 1 E3A],"-2.02 log2 (fold change of variant abundance after two TEAD sorts vs input, normalised to TB1G1)"
11,chain 1 PDEYIIRAKECCKKGDIQCCLRYFEESGDPNVMLICLFCP [chain 1 E6I],"-1.56 log2 (fold change of variant abundance after two TEAD sorts vs input, normalised to TB1G1)"
12,chain 1 PDEYIEFAKECCKKGDIQCCLRYFEESGDPNVMLICLFCP [chain 1 R7F],"-1.04 log2 (fold change of variant abundance after two TEAD sorts vs input, normalised to TB1G1)"
13,chain 1 PDEYIERKKECCKKGDIQCCLRYFEESGDPNVMLICLFCP [chain 1 A8K],"-4.73 log2 (fold change of variant abundance after two TEAD sorts vs input, normalised to TB1G1)"
14,chain 1 PDEYIERASECCKKGDIQCCLRYFEESGDPNVMLICLFCP [chain 1 K9S],"-0.907 log2 (fold change of variant abundance after two TEAD sorts vs input, normalised to TB1G1)"
15,chain 1 PDEMIERAKECCKKGDIQCCLRYFEESGDPNVMLICLFCP [chain 1 Y4M],"-0.684 log2 (fold change of variant abundance after two TEAD sorts vs input, normalised to TB1G1)"
16,chain 1 IDEYIERAKECCKKGDIQCCLRYFEESGDPNVMLICLFCP [chain 1 P1I],"-2.27 log2 (fold change of variant abundance after two TEAD sorts vs input, normalised to TB1G1)"
17,chain 1 PDEYKERAKECCKKGDIQCCLRYFEESGDPNVMLICLFCP [chain 1 I5K],"-1.5 log2 (fold change of variant abundance after two TEAD sorts vs input, normalised to TB1G1)"
18,chain 1 PDEYAERAKECCKKGDIQCCLRYFEESGDPNVMLICLFCP [chain 1 I5A],"-1.2 log2 (fold change of variant abundance after two TEAD sorts vs input, normalised to TB1G1)"
19,chain 1 PDEYIERYKECCKKGDIQCCLRYFEESGDPNVMLICLFCP [chain 1 A8Y],"-3.35 log2 (fold change of variant abundance after two TEAD sorts vs input, normalised to TB1G1)"
